Drawing on publication PMC11891784, “Reversible enzyme-catalysed NAD^+/NADH electrochemistry” (Chemical Science, 2025), this text covers Km and kcat for 1 protein.

Substrate in this series: NC(=O)c1ccc[n+]([C@@H]2O[C@H](COP(=O)(O)OP(=O)(O)OC[C@H]3O[C@@H](n4cnc5c(N)ncnc54)[C@H](O)[C@@H]3O)[C@@H](O)[C@H]2O)c1
Put plainly: mediated catalytic cyclic voltammetry. The format is biochemical, Cupriavidus necator. As to conditions: methyl viologen 60 μM as electron donor, 50 mM phosphate pH 7.5, 25 °C, N2, FdsBG 0.34 μM, turnover number calculated from simulated rate constant and Km.

B1: FdsBG (subcomplex of formate dehydrogenase FdsDABG) (Cupriavidus necator H16) (protein)
chain: MITITTIFVPRDSTALALGADDVARAIAREAAARNEHVRIVRNGSRGMFWLEPLVEVQTGAGRVAYGPVSAADVPGLFDAGLLQGGEHALSQGVTEEIPFLKQQERLTFARVGITDPLSLDDYRAHEGFAGLERALAMQPAEIVQEVTDSGLRGRGGAAFPTGIKWKTVLGAQSAVKYIVCNADEGDSGTFSDRMVMEDDPFMLIEGMTIAALAVGAEQGYIYCRSEYPHAIAVLESAIGIANAAGWLGDDIRGSGKRFHLEVRKGAGAYVCGEETALLESLEGRRGVVRAKPPLPALQGLFGKPTVINNVISLATVPVILARGAQYYRDYGMGRSRGTLPFQLAGNIKQGGLVEKAFGVTLRELLVDYGGGTRSGRAIRAVQVGGPLGAYLPESRFDVPLDYEAYAAFGGVVGHGGIVVFDETVDMAKQARYAMEFCAIESCGKCTPCRIGSTRGVEVMDRIIAGEQPVKHVALVRDLCDTMLNGSLCAMGGMTPYPVLSALNEFPEDFGLASNPAKAA
notes: FdsBG subcomplex without FdsA and FdsD; FdsB 55 kDa (FMN, [4Fe-4S]) and FdsG 19 kDa ([2Fe-2S]); 74 kDa in total; expressed and purified by a published procedure; with NAD-dependent formate dehydrogenase gamma subunit
As to B1, the Km is 1.2(1) mM and the kcat is 2400 s⁻¹.

For orientation: kcat means the maximal rate divided by the concentration of active sites.
